Laboratory results from article PMC12990809.

Legend:
Test in all cases: pulldown
Conditions in all cases: 20 nM protein, 1.5 uM RNA pool; 20 mM HEPES pH 7.8, 70 mM KCl, 10 mM NaCl, 10% glycerol, 2 mM DTT, 0.1 ug/uL BSA; 30 min, 4 C
[1] = biological target: T1, SCHCODRAFT_80278 (Schizophyllum commune) (UniProt A0ACF2ERL4)
T1 sequence: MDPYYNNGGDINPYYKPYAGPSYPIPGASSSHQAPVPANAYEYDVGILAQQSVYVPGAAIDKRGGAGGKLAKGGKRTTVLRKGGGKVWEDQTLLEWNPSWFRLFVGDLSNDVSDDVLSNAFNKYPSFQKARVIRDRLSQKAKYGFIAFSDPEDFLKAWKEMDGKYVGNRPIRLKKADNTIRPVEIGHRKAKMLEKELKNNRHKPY

[2] = biological target: e_gw1.13.00.297.1 (Ostreococcus tauri) (UniProt A0A096P8F1)
e_gw1.13.00.297.1 (Ostreococcus tauri), sequence (A0A096P8F1 entry or part of it): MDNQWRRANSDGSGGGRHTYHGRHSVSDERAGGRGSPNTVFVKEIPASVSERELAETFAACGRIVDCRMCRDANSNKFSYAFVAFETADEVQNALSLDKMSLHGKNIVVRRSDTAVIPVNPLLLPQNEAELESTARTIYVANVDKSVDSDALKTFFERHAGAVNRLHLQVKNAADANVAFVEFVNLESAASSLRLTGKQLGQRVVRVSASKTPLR

[3] = biological target: T2, LmjF.34.4560 (Leishmania major) (UniProt Q4Q285)
T2 sequence: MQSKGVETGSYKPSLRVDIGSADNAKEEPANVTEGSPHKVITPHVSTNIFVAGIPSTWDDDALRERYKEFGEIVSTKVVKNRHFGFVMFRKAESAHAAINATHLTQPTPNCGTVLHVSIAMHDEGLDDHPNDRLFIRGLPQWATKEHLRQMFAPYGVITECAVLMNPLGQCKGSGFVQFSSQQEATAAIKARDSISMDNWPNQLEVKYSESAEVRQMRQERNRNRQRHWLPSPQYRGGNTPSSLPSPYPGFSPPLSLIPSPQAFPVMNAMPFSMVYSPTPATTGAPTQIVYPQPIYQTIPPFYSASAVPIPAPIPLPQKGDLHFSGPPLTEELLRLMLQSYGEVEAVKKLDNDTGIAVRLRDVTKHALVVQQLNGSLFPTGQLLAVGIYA

[4] = biological target: estExt_fgenesh1_pg.C_Chr_03.00010087 (Ostreococcus tauri) (UniProt A0A096P7J9)
estExt_fgenesh1_pg.C_Chr_03.00010087 (Ostreococcus tauri), sequence (A0A096P7J9 entry or part of it): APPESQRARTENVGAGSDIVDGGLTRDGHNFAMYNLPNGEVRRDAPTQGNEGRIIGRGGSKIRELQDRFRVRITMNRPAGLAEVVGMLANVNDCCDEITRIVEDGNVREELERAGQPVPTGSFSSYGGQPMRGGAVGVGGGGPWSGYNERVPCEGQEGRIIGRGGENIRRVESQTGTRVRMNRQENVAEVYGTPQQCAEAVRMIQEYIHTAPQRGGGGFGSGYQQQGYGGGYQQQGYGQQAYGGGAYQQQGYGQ

[5] = biological target: T3, LmjF.25.0080 (Leishmania major) (UniProt Q4QA88)
T3 sequence: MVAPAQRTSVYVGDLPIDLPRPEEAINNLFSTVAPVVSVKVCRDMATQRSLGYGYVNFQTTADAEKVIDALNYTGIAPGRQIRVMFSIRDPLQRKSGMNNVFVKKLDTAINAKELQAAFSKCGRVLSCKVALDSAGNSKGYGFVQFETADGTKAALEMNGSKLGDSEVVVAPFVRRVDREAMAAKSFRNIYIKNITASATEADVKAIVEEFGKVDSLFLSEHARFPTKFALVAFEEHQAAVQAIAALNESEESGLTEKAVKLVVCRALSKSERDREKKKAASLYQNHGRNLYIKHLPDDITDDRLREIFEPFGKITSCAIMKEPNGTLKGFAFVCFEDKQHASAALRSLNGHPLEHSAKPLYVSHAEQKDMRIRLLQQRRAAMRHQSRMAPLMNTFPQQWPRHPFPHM

[6] = biological target: T4, PK27183.1 (Cannabis sativa) (UniProt A0A7J6I1V8)
T4 sequence: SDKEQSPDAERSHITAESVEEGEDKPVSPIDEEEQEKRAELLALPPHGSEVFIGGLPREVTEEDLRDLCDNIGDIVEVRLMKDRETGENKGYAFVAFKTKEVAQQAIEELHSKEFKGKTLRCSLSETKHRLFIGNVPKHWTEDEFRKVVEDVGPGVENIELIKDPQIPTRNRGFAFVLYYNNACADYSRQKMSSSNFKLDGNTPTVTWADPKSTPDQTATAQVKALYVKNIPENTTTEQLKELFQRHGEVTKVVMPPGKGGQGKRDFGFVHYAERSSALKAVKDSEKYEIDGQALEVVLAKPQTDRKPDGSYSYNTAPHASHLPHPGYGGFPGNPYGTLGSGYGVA

[7] = biological target: T5, hnrnpa0 (Xenopus tropicalis) (UniProt A0A8J0QIP1)
T5 sequence: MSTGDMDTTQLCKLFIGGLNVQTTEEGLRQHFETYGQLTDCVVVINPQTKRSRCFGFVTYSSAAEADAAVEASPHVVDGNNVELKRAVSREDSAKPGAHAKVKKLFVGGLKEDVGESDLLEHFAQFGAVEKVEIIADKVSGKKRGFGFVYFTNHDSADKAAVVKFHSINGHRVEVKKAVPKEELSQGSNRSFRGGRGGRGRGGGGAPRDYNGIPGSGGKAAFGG

[8] = biological target: T6, NCU09742 (Neurospora crassa) (UniProt Q7SEI3)
T6 sequence: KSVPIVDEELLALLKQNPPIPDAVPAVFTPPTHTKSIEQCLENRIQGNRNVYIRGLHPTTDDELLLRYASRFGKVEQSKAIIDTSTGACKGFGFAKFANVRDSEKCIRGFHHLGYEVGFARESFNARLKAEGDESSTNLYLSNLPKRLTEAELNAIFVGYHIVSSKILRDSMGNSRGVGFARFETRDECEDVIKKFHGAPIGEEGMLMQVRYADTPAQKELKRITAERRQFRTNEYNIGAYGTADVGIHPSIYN

[9] = biological target: T7, LmjF.18.0190 (Leishmania major) (UniProt Q4QE23)
T7 sequence: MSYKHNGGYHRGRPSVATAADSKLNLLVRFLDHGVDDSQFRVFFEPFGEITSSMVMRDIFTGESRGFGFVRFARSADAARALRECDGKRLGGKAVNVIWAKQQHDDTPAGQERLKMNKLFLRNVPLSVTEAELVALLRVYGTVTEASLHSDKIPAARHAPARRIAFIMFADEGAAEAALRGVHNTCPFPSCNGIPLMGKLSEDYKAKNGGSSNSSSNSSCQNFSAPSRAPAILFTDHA

AACUAC [RNAcompete motif RNCMPT00678]
binding signal (z-score (mean of top ten 7-mers)) [1]: 13.6

AAUAAG [RNAcompete motif RNCMPT00681]
binding signal (z-score (mean of top ten 7-mers)) [2]: 20.7

ACAACU [RNAcompete motif RNCMPT00691]
binding signal (z-score (mean of top ten 7-mers)) [3]: 18.4

ACGCGA [RNAcompete motif RNCMPT00694]
binding signal (z-score (mean of top ten 7-mers)) [4]: 10.9

AGAAAA [RNAcompete motif RNCMPT00688]
binding signal (z-score (mean of top ten 7-mers)) [5]: 9.16

AGACACA [RNAcompete motif RNCMPT00685]
binding signal (z-score (mean of top ten 7-mers)) [6]: 13.3

AUUAGGA [RNAcompete motif RNCMPT00684]
binding signal (z-score (mean of top ten 7-mers)) [7]: 8.79

AUUAUUA [RNAcompete motif RNCMPT00676]
binding signal (z-score (mean of top ten 7-mers)) [8]: 9.27

CUCAUUU [RNAcompete motif RNCMPT00687]
binding signal (z-score (mean of top ten 7-mers)) [9]: 20.6
